Test results: patent publication US20230416396A1 (Regeneron, published 2023)
Where two headings read alike, the source gives them in different places.

How the values were obtained:
human 4-1BB on cells [1] = biological target: T1, human 4-1BB on cells (human, UniProt Q07011 24-255); experiment: cell-based or functional assay
[2] = biological target: T2, human 4-1BB expressed with a C-terminal myc-myc-hexahistidine tag (human, UniProt Q07011 24-186); experiment: SPR Biacore 8k, antibody captured by anti-human Fc, h4-1BB.mmH as analyte, 25 C
T2 construct: also called h4-1BB.mmH; REGN3584; not shown: C-terminal myc-myc-hexahistidine tag
Method: Equilibrium dissociation constants (KD values) for human 4-1BB expressed with a C-terminal myc-myc-hexahistidine tag (h4-1BB.mmH, REGN3584) or human 4-1BB expressed with a C-terminal murine Fc tag (h4-1BB.mFc, REGN3585) binding to purified anti-CD38×4-1BB 1+2 antibodies were determined using a real-time surface plasmon resonance biosensor using a Biacore 8k instrument. The CM5 Biacore sensor surface was derivatized by amine coupling with a monoclonal mouse anti-human Fc antibody (REGN2567). All Biacore binding studies were performed in a buffer composed of 0.01M HEPES pH 7.4, 0.15M NaCl, 3 mM EDTA, 0.05% v/v Surfactant P20 (HBS-EP running buffer). […] Antibody-reagent association was monitored for 5 minutes while dissociation in HBS-EP running buffer was monitored for 10 minutes. At the end of each cycle, the anti-CD38×4-1BB 1+2 antibody capture surface was regenerated using a 10 second injection of 20 mM phosphoric acid. All binding kinetics experiments were performed at 25° C.
(§1) Kinetic association (kₐ) and dissociation (kd) rate constants were determined by fitting the real-time sensorgrams to a 1:1 binding model using Cytiva Insight curve fitting software. Binding dissociation equilibrium constants (KD) and dissociative half-lives (t/2) were calculated from the kinetic rate constants as: […]

human 4-1BB on cells [3] = biological target: T1, human 4-1BB on cells; experiment: cell-based or functional assay; remark: listed apart in the source
[4] = biological target: T3, human CD38 endogenously expressed on MOLP8 cells (human, UniProt P28907 1-300); experiment: flow cytometry on MOLP8 cells (endogenous hCD38), APC anti-human secondary
T3 construct: whole, on cells; also called hCD38
Method: The ability of the multispecific antigen binding molecules to bind cells was assessed using flow cytometry. Cell lines were chosen to determine the ability of both the anti-CD38 and anti-4-1BB arms to bind their targets. […] Binding was detected by using a labeled secondary antibody and measuring fluorescence on a flow cytometer.
HEK293 cells were lifted with trypsin, washed and resuspend in stain buffer (2% FBS in PBS). MOLP8 cells were washed and resuspended in stain buffer. Cells were added to wells of a 96 well V-bottom plate (3×10⁵ cells/well). A 1:4, 9-point, dose titration of test antibodies was diluted in stain buffer and added to cells to a final concentration ranging from 610 fM to 10 nM (a “no antibody” control was included as the ninth point (153fM), labeled as “secondary only”). Cells and antibodies were incubated for 30 min on ice and then washed in stain buffer. Cells were resuspended in 2 ug/ml allophycocyanin (APC) conjugated goat-anti human secondary antibody and incubated for 30 min on ice. Cells were then washed and resuspended in viability dye (according to the manufacturer's protocol) and incubated for 30 min on ice. Cells were then washed with stain buffer and resuspended in 2% PFA for 30 min on ice. After washing, cells were filtered and analyzed by flow cytometry to determine the geometric mean fluorescence intensity (gMFI), which was subsequently plotted using GraphPad Prism software. EC₅₀ values of the antibodies were determined from a 4-parameter logistic equation over a 9-point dose response curve (including secondary only control, representing the ninth point).

human 4-1BB on cells [5] = biological target: T1, human 4-1BB on cells; experiment: cell-based or functional assay; remark: listed apart in the source
human 4-1BB on cells [6] = biological target: T1, human 4-1BB on cells; experiment: cell-based or functional assay; remark: listed apart in the source
[7] = biological target: T4, human 4-1BB expressed with a C-terminal murine Fc tag (human, UniProt Q07011 24-186); experiment: SPR Biacore 4000, h4-1BB.mFc captured by anti-mouse Fc, antibody as analyte, 25 C
T4 construct: also called h4-1BB.mFc; REGN3585; not shown: C-terminal murine Fc tag
Method: Equilibrium dissociation constants (KD values) for human 4-1BB expressed with a C-terminal murine Fc tag (h4-1BB.mFc, REGN3585) binding to purified anti-CD38×4-1BB 1+2 antibodies were determined using a real-time surface plasmon resonance biosensor using a Biacore 4000 instrument. […] All Biacore binding studies were performed in a buffer composed of 0.01M HEPES pH 7.4, 0.15M NaCl, 3 mM EDTA, 0.05% v/v Surfactant P20 (HBS-EP running buffer). Different concentrations of CD38×4-1BB 1+2 constructs prepared in HBS-EP running buffer (ranging from 100 to 6.25 nM in 4-fold serial dilutions) were injected over the h4-1BB.mFc (REGN3585) captured surface at a flow rate of 30 μL/minute. Antibody-reagent association was monitored for 5 minutes while dissociation in HBS-EP running buffer was monitored for 10 minutes. At the end of each cycle, the h4-1BB.mFc capture surface was regenerated using a 40 sec injection of 10 mM glycine, pH 1.5. All binding kinetics experiments were performed at 25° C.
as §1

human 4-1BB on cells [8] = biological target: T1, human 4-1BB on cells; experiment: cell-based or functional assay; remark: listed apart in the source
human 4-1BB on cells [9] = biological target: T1, human 4-1BB on cells; experiment: cell-based or functional assay; remark: listed apart in the source

T4 sequence (Q07011 24-186 limits assumed): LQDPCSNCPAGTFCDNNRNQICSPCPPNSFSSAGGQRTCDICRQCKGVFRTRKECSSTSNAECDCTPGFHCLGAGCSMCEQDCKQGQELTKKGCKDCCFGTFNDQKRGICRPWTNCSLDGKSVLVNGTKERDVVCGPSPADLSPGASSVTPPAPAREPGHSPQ
T2 sequence (Q07011 24-186 limits assumed): as above
T1 sequence (Q07011 24-255): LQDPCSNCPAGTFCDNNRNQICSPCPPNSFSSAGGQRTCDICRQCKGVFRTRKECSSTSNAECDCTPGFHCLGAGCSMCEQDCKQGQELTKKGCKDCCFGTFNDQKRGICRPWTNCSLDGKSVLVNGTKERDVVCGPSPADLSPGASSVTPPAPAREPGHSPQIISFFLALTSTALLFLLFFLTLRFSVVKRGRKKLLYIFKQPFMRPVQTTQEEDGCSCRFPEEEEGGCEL

B1: REGN7647 (bispecific antibody, human IgG4 S228P, kappa)
heavy 1: EVQLVESGGGLVQPGRSLRLSCGASGFTFDDYVMHWVRQIPGKGLEWVAGISWNSGSIGYADSVKGRFTISRDNAKNSLYLQMNSLRAEDTALYFCAKDHIDPYSSSLYYYYGMDVWGQGTTVTVSSASTKGPSVFPLAPCSRSTSESTAALGCLVKDYFPEPVTVSWNSGALTSGVHTFPAVLQSSGLYSLSSVVTVPSSSLGTKTYTCNVDHKPSNTKVDKRVESKYGPPGGGGSGGGGSGGGGSEVQLVESGGGLVQPGRSLRLSCGASGFTFDDYVMHWVRQIPGKGLEWVAGISWNSGSIGYADSVKGRFTISRDNAKNSLYLQMNSLRAEDTALYFCAKDHIDPYSSSLYYYYGMDVWGQGTTVTVSSASTKGPSVFPLAPCSRSTSESTAALGCLVKDYFPEPVTVSWNSGALTSGVHTFPAVLQSSGLYSLSSVVTVPSSSLGTKTYTCNVDHKPSNTKVDKRVESKYGPPCPPCPAPPVAGPSVFLFPPKPKDTLMISRTPEVTCVVVDVSQEDPEVQFNWYVDGVEVHNAKTKPREEQFNSTYRVVSVLTVLHQDWLNGKEYKCKVSNKGLPSSIEKTISKAKGQPREPQVYTLPPSQEEMTKNQVSLTCLVKGFYPSDIAVEWESNGQPENNYKTTPPVLDSDGSFFLYSRLTVDKSRWQEGNVFSCSVMHEALHNRFTQKSLSLSPGK
heavy 2: EVQLVESGGGLVQPGRSLRLSCAASGFTFDDYAMHWVRQAPGKGLEWVSGISWKSDNIGYADSVKGRFTISRDNAKNSLYLQMNSLRAEDTALYYCAKALGGWKFDYYYGMDVWGQGTTVTVSSASTKGPSVFPLAPCSRSTSESTAALGCLVKDYFPEPVTVSWNSGALTSGVHTFPAVLQSSGLYSLSSVVTVPSSSLGTKTYTCNVDHKPSNTKVDKRVESKYGPPCPPCPAPPVAGPSVFLFPPKPKDTLMISRTPEVTCVVVDVSQEDPEVQFNWYVDGVEVHNAKTKPREEQFNSTYRVVSVLTVLHQDWLNGKEYKCKVSNKGLPSSIEKTISKAKGQPREPQVYTLPPSQEEMTKNQVSLTCLVKGFYPSDIAVEWESNGQPENNYKTTPPVLDSDGSFFLYSRLTVDKSRWQEGNVFSCSVMHEALHNHYTQKSLSLSLGK
light: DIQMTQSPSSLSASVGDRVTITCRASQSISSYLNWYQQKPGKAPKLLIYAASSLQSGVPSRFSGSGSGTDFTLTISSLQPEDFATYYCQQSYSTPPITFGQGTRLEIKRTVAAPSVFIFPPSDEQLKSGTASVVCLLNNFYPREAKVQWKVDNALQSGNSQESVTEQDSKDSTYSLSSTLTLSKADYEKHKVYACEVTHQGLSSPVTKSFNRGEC
notes: 1+2 format, hIgG4P-PVA; The linker between the two 4-1BB Fabs is (G4S)3v15; also called CD38x4-1BB (1 + 2), (G4S)3v15; 26812P2 x 35333P2 (IN) + 35333P2 (OUT)
- EC50 of IFNγ release, T cells + HEK293/CD20/CD38 + REGN2281 (human 4-1BB on cells [1]): 0.0617 nM
- EC50 of IFNγ release, T cells + MOLP-8 + REGN5458 (human 4-1BB on cells [1]): 0.0707 nM
- EC50 of IFNγ release, T cells + NALM-6 (human 4-1BB on cells [1]): 0.0703 nM
- MAX IFNγ release, T cells + HEK293/CD20 + REGN2281 (human 4-1BB on cells [1]): 1910 pg/mL
- MAX IFNγ release, T cells + HEK293/CD20/CD38 + REGN2281 (human 4-1BB on cells [1]): 6050 pg/mL
- MAX IFNγ release, T cells + MOLP-8 + IsoC (human 4-1BB on cells [1]): 103 pg/mL
- MAX IFNγ release, T cells + MOLP-8 + REGN5458 (human 4-1BB on cells [1]): 3280 pg/mL
- MAX IFNγ release, T cells + NALM-6 (human 4-1BB on cells [1]): 655 pg/mL
- 100 nM h4-1BB.mmH Bind (RU) [2]: 86.1 RU
- Kd [2]: 16.5 nM
- koff [2]: 0.00533 s⁻¹
- kon [2]: 324000 M⁻¹ s⁻¹
- t½ [2]: 2.2 min
- EC50 of IL-2 release, T cells + HEK293/CD20/CD38 + REGN2281 (human 4-1BB on cells [3]): 0.0535 nM
- EC50 of IL-2 release, T cells + MOLP-8 + REGN5458 (human 4-1BB on cells [3]): 0.216 nM
- EC50 of IL-2 release, T cells + NALM-6 (human 4-1BB on cells [3]): 0.0485 nM
- MAX IL-2 release, T cells + HEK293/CD20 + REGN2281 (human 4-1BB on cells [3]): 61 pg/mL
- MAX IL-2 release, T cells + HEK293/CD20/CD38 + REGN2281 (human 4-1BB on cells [3]): 781 pg/mL
- MAX IL-2 release, T cells + MOLP-8 + IsoC (human 4-1BB on cells [3]): 73 pg/mL
- MAX IL-2 release, T cells + MOLP-8 + REGN5458 (human 4-1BB on cells [3]): 66 pg/mL
- MAX IL-2 release, T cells + NALM-6 (human 4-1BB on cells [3]): 192 pg/mL
- MAX gMFI [4]: 120000 gMFI
- EC50 of IFNγ release, T cells + NALM-6 + IgG4P (human 4-1BB on cells [5]): 0.0815 nM
- EC50 of luciferase activity, HEK293/NFkB-Luc/h4-1BB reporter + OPM2 (human 4-1BB on cells [6]): 0.00735 nM
- MAX luciferase activity, HEK293/NFkB-Luc/h4-1BB reporter + HEK293/CD20 (human 4-1BB on cells [6]): 1.2e+06 RLU
- MAX luciferase activity, HEK293/NFkB-Luc/h4-1BB reporter + HEK293/CD20/CD38 (human 4-1BB on cells [6]): 2.4e+06 RLU
- MAX luciferase activity, HEK293/NFkB-Luc/h4-1BB reporter + MOLP-8 (human 4-1BB on cells [6]): 2.3e+06 RLU
- MAX luciferase activity, HEK293/NFkB-Luc/h4-1BB reporter + OPM2 (human 4-1BB on cells [6]): 1.9e+06 RLU
- 100 nM Ab Bind (RU) [7]: 206 RU
- Kd [7]: 0.56 nM
- koff [7]: 0.000351 s⁻¹
- kon [7]: 626000 M⁻¹ s⁻¹
- t½ [7]: 32.9 min
- EC50 of IL-2 release, T cells + NALM6 + Cemiplimab (human 4-1BB on cells [8]): 0.0477 nM
- EC50 of IL-2 release, T cells + NALM6 + IgG4P (human 4-1BB on cells [8]): 0.0579 nM
- EC50 of IL-2 release, T cells + NALM6/PD-L1 + Cemiplimab (human 4-1BB on cells [8]): 0.0911 nM
- EC50 of IL-2 release, T cells + NALM6/PD-L1 + IgG4P (human 4-1BB on cells [8]): 0.117 nM
- EC50 of IL-2 release, T cells + HEK293/CD20/CD38 + REGN1979 (human 4-1BB on cells [9]): 0.0058 nM
- EC50 of IL-2 release, T cells + MOLP-8 + IsoC (human 4-1BB on cells [9]): 0.00221 nM
- EC50 of IL-2 release, T cells + MOLP-8 + REGN5458 (human 4-1BB on cells [9]): 0.0231 nM
- MAX IL-2 release, T cells + HEK293/CD20 + REGN1979 (human 4-1BB on cells [9]): 199 pg/mL
- MAX IL-2 release, T cells + HEK293/CD20/CD38 + IsoC (human 4-1BB on cells [9]): 18 pg/mL
- MAX IL-2 release, T cells + HEK293/CD20/CD38 + REGN1979 (human 4-1BB on cells [9]): 2850 pg/mL
- MAX IL-2 release, T cells + MOLP-8 + IsoC (human 4-1BB on cells [9]): 331 pg/mL
- MAX IL-2 release, T cells + MOLP-8 + REGN5458 (human 4-1BB on cells [9]): 692 pg/mL
